Assay results as given in the supplement of paper PMC10567573.

B1: ACSBG2 (parent)
chain: TPMTIPEFFRESVNRFGTYPALAS

Variants of: B1
Experiment: protein stability index of a GFP-peptide fusion (GPS, HEK-293T) (PSI 1-6); higher = more stable
Conditions: c terminus: a fixed tail appended
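Further: lentivirally expressed fusions sorted by FACS into six bins by GFP to DsRed ratio, PSI derived from sequencing read proportions per bin multiplied by bin number.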

| Variant | protein stability index |
| --- | --- |
| TPMTIPEFLRESVNRFGTYPALAS [F9L] | 1.76 |
| TPMTIPEFMRESVNRFGTYPALAS [F9M] | 2.45 |
| TPMTIPEFRRESVNRFGTYPALAS [F9R] | 2.88 |
| TPMTIPEFHRESVNRFGTYPALAS [F9H] | 2.98 |
| TPMTIPEFFRESMNRFGTYPALAS [V13M] | 2.41 |
| TPMTIPEFFRESFNRFGTYPALAS [V13F] | 1.97 |
| TPMTIPEFFRESDNRFGTYPALAS [V13D] | 2.79 |
| TPMTIPEFFRESGNRFGTYPALAS [V13G] | 2.2 |
| TPMTIPEFFRESYNRFGTYPALAS [V13Y] | 2.64 |
| TPMTIPEFFRESINRFGTYPALAS [V13I] | 2.56 |
| TPMTIPEFFRESCNRFGTYPALAS [V13C] | 3.09 |
| TPMTIPEFFRESWNRFGTYPALAS [V13W] | 1.76 |
| TPMTIPEFFRESTNRFGTYPALAS [V13T] | 2.98 |
| TPMTIPEFFRESANRFGTYPALAS [V13A] | 2.42 |
| TPMTIPEFFRESQNRFGTYPALAS [V13Q] | 2.28 |
| TPMTIPEFFRESENRFGTYPALAS [V13E] | 2.78 |
| TPMTIPEFFRESKNRFGTYPALAS [V13K] | 2.31 |
| TPMTIPEFFRESRNRFGTYPALAS [V13R] | 2.37 |
| TPMTIPEFFRESHNRFGTYPALAS [V13H] | 2.59 |
| TPMTIPEFFRESSNRFGTYPALAS [V13S] | 2.44 |
| TPMTIPEFFRESNNRFGTYPALAS [V13N] | 2.84 |
| TPMTIPEFFRESLNRFGTYPALAS [V13L] | 2.09 |
| TPMTIPEFFRESPNRFGTYPALAS [V13P] | 2.43 |
| TPMTIPEFFRESVNRFFTYPALAS [G17F] | 1.8 |

| Variant | protein stability index |
| --- | --- |
| TPMTIPEFFRESVNRFCTYPALAS [G17C] | 1.43 |
| TPMTIPEFFRESVNRFWTYPALAS [G17W] | 2.12 |
| TPMTIPEFFRESVNRFRTYPALAS [G17R] | 2.42 |
| TPMTIPEFFRESVNRFVTYPALAS [G17V] | 2.1 |
| TPMTIPEFFRESVNRFKTYPALAS [G17K] | 2.27 |
| TPMTIPEFFRESVNRFETYPALAS [G17E] | 2.35 |
| TPMTIPEFFRESVNRFPTYPALAS [G17P] | 2.22 |
| TPMTIPEFFRESVNRFQTYPALAS [G17Q] | 1.86 |
| TPMTIPEFFRESVNRFITYPALAS [G17I] | 1.97 |
| TPMTIPEFFRESVNRFDTYPALAS [G17D] | 2.76 |
| TPMTIPEFFRESVNRFMTYPALAS [G17M] | 2.17 |
| TPMTIPEFFRESVNRFATYPALAS [G17A] | 1.78 |
| TPMTIPEFFRESVNRFTTYPALAS [G17T] | 1.91 |
| TPMTIPEFFRESVNRFYTYPALAS [G17Y] | 2.04 |
| TPMTIPEFFRESVNRFHTYPALAS [G17H] | 2.28 |
| TPMTIPEFFRESVNRFLTYPALAS [G17L] | 1.95 |
| TPMTIPEFFRESVNRFSTYPALAS [G17S] | 2.62 |
| TPMTIPEFFRESVNRFNTYPALAS [G17N] | 2.34 |
| TPMTIPEFFRESVNRFGCYPALAS [T18C] | 2.35 |
| TPMTIPEFFRESVNRFGIYPALAS [T18I] | 2.02 |
| TPMTIPEFFRESVNRFGKYPALAS [T18K] | 2.77 |
| TPMTIPEFFRESVNRFGFYPALAS [T18F] | 1.9 |
| TPMTIPEFFRESVNRFGMYPALAS [T18M] | 1.74 |
| TPMTIPEFFRESVNRFGHYPALAS [T18H] | 2.1 |

| Variant | protein stability index |
| --- | --- |
| TPMTIPEFFRESVNRFGDYPALAS [T18D] | 2.9 |
| TPMTIPEFFRESVNRFGPYPALAS [T18P] | 2.08 |
| TPMTIPEFFRESVNRFGEYPALAS [T18E] | 3.05 |
| TPMTIPEFFRESVNRFGAYPALAS [T18A] | 1.89 |
| TPMTIPEFFRESVNRFGQYPALAS [T18Q] | 2.02 |
| TPMTIPEFFRESVNRFGGYPALAS [T18G] | 2.17 |
| TPMTIPEFFRESVNRFGNYPALAS [T18N] | 2.35 |
| TPMTIPEFFRESVNRFGLYPALAS [T18L] | 2.31 |
| TPMTIPEFFRESVNYFGTYPALAS [R15Y] | 1.99 |
| TPMTIPEFFRESVNMFGTYPALAS [R15M] | 1.8 |
| TPMTIPEFFRESVNVFGTYPALAS [R15V] | 2.41 |
| TPMTIPEFFRESVNIFGTYPALAS [R15I] | 2.24 |
| TPMTIPEFFRESVNLFGTYPALAS [R15L] | 2.38 |
| TPMTIPEFFRESVNCFGTYPALAS [R15C] | 2.12 |
| TPMTIPEFFRESVNTFGTYPALAS [R15T] | 2.57 |
| TPMTIPEFFRESVNFFGTYPALAS [R15F] | 2.25 |
| TPMTIPEFFRESVNHFGTYPALAS [R15H] | 2.14 |
| TPMTIPEFFRESVNGFGTYPALAS [R15G] | 1.97 |
| TPMTIPEFFRESVNSFGTYPALAS [R15S] | 2.64 |
| TPMTIPEFFRESVNDFGTYPALAS [R15D] | 2.78 |
| TPMTIPEFFRESVNQFGTYPALAS [R15Q] | 2.69 |
| TPMTIPEFFRESVNWFGTYPALAS [R15W] | 1.52 |
| TPMTIPEFFRESVNEFGTYPALAS [R15E] | 2.62 |
| TPMTIPEFFRESVNPFGTYPALAS [R15P] | 2.04 |

| Variant | protein stability index |
| --- | --- |
| TPMTIPEFFRESVNAFGTYPALAS [R15A] | 2.41 |
| TPMTIPEFFRESVNKFGTYPALAS [R15K] | 2.1 |
| TPMTIPEFFRESVNNFGTYPALAS [R15N] | 2.5 |
| TPMTIPEFFRERVNRFGTYPALAS [S12R] | 2.25 |
| TPMTIPEFFREQVNRFGTYPALAS [S12Q] | 2.65 |
| TPMTIPEFFREKVNRFGTYPALAS [S12K] | 2.17 |
| TPMTIPEFFREHVNRFGTYPALAS [S12H] | 2.27 |
| TPMTIPEFFREWVNRFGTYPALAS [S12W] | 1.39 |
| TPMTIPEFFREFVNRFGTYPALAS [S12F] | 1.66 |
| TPMTIPEFFREPVNRFGTYPALAS [S12P] | 2.47 |
| TPMTIPEFFRETVNRFGTYPALAS [S12T] | 2.02 |
| TPMTIPEFFRELVNRFGTYPALAS [S12L] | 2.01 |
| TPMTIPEFFREGVNRFGTYPALAS [S12G] | 2.48 |
| TPMTIPEFFRENVNRFGTYPALAS [S12N] | 2.25 |
| TPMTIPEFFREMVNRFGTYPALAS [S12M] | 2.64 |
| TPMTIPEFFREIVNRFGTYPALAS [S12I] | 1.76 |
| TPMTIPEFFREYVNRFGTYPALAS [S12Y] | 1.86 |
| TPMTIPEFFREVVNRFGTYPALAS [S12V] | 2.19 |
| TPMTIPEFFREAVNRFGTYPALAS [S12A] | 1.97 |
| TPMTIPEFFREDVNRFGTYPALAS [S12D] | 2.96 |
| TPMTIPEFFREEVNRFGTYPALAS [S12E] | 2.69 |
| TPMTIPEFFRECVNRFGTYPALAS [S12C] | 1.53 |
